This assay has as its target HexaPro, a prefusion construct of the SARS-CoV-2 spike (SARS-CoV-2, Wuhan-Hu-1 reference spike …, UniProt P0DTC2, stabilised). Briefly: negative-stain EM.

B1: Nb56 (llama nanobody, monomer) (VHH)
VHH: QVQLQESGGGLVQAGDSLRLSCVASERTFRRYGMGWFRQAPGKEREFVAAVDRSHTKTGYADFVKGRFTISTNYENMVYLQMNSLKPEDTAVYYCAAPSYEKGSDPTSWNTDRGYDYWGQGTQVTVSS
B1: the binding result is listed as “binds”.
